From the nanobody polyreactivity screen of Harvey et al. (2022)

Test: yeast display, Sf9 membrane polyspecificity reagent, FACS + sequencing; frameworks hold sequencing errors
Procedure, shortened: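 Nanobodies from a synthetic yeast display library (Saccharomyces cerevisiae BJ5465), induced 36–48 hours with galactose, were stained 1 hour at 4 °C with 10% biotinylated, detergent-solubilized Sf9 membrane reagent, enriched on streptavidin microbeads, then FACS-sorted. Anti-HA (expression) and streptavidin (reagent binding) fluorescence set low and high (top ~1%) gates. Polyreactivity labels come from the gate of origin. Genes were colony-PCR amplified, MiSeq 2 × 250 sequenced and filtered by CDR length.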

Sequence | polyreactivity (PSR sort gate)
QVQLVESGGGLVQAGGSLRLSCAASGRTLSYYAMGWYRQAPGKEREFVAAITGSGGSTYYADSVKGRFTISRDNAKNNVYLQMNSLKPEDTAVYYCNATGLGVFTVEYYYWGQGTQVTVSS | low polyreactivity
QVQLVESGGGLVQAGGSLRLSCAASGSTFGLNVMGWYRQAPGKEREFVAGISRSGGRTYYADSVKGRFTISRDNAKNTVYLQMNSLKPADTAVYYCAADYWTGITPDAIGDYWGQGTQVTVSS | low polyreactivity
QVQLVESGGGLVQAGGSLRLSCAASGRIFAFNAMGGYRQAPGKERELVAAITGRGGRTYYADSVKGRFTISRDHAKNTVYLQMNSLKPEDTAVYYCAAQRYINYDYWGQGTQVTVSS | high polyreactivity
QGQLVESGGGLVQAGGSLRLSCAASGRTFTINAMGWYRQATGKERELHAAISSDGNTNYADSVKGRFTISRDNAKNTVYLQMNSLKPEDTAVYYCAADWVRYSYRHGSYRVYYWGQGTQVTVSS | high polyreactivity
QVQLVESGGRLVQAGGSLRLSCAASGSTFNRYAMGWYRQAPGKERELVAAISRGGSTTYADSVKGRFTISRDNAKHTVYLQMYSLKPEDTAVYYCAALYYSPRYWYDYWGLGTQVTVSS | high polyreactivity
QVQLVESGGGLVQAGGSLRLSCPASGSIFYTNAMGWYRQAPVKERELVAAISRGGSTKYADSVKGRFTISRDNAKNSVYLQMNSLKPEDTAVYYCAARGTASRYLYIPYYYWGQGTQVTVSS | high polyreactivity
QVQLVESGGGLVQSGGSLRLSCAASGRTFLTYVMGWYRPAPGKERELVAAITRGGRTNYAHSEKGRFTISRDNAKNTVDLQMTSLKPEDTAVYYCARDDTPRYDYWGQGTQVTVSS | low polyreactivity
QVQLVESGGGLVQAGGSLRLSCAASGSIFGIYAMGWYRPAPGKERELVATINSRGTTNYADSVKGRFTISRDNAKNTVYLQMNSLKPEDTAVYYCAARFSTYRGKRKGYEYWGQGTQVTVSS | high polyreactivity
QVQLVESGGGLVQAGGSLRLSCAASGRTFYTNAMGWYRQAAGKERELVAVISRGGTTYYADSVKGRFTISRDNAKNTVYLQMNSLKPEDTAVYYCAKQRPSGDSSSQMGSWGQGTQVTVSS | low polyreactivity
QVQLVESGGALVQAGGSLRLSCAASGRTFYSYAMGWYRQAPGKERELVAAINRGASTYYADSVKGRFTISRDNAKNTDYFQMKSLKPEDTAFYYCGARLYGRHYGYWGQGTQVTVSS | high polyreactivity
QVQLVESGGGLVQAGGSLRLSCAASGLIFSYYPMGWYRQAPGKERELVAAITGSGGTTYYADSVKGRFTISRDNAKNTVYLQMNSLKPEDTAVYYCATSPPEVWQRWYREYDYWGQVTQVTVSS | low polyreactivity
QVQLVESGGGLVQAGGSLRLSCAASGFTFYHYAMGWYRQAPGTERELVASITRSGASTYYADSVKGRFTSSRDNAKNTVYLQMNSLKPEDTAVYYCNKVRYTSSIWTYYYWGQGTQVTVSS | high polyreactivity
QVQLVESGGGLVQAGGSLRLSCAASGSIFKYYAMGWYRQAPGKERELVAAITSSGARTYYADSVKGRFTISRDNAKNTVYLQMNSLKPEDTAVYYCRGYVRDQSKYDYWGQGTQVTVSS | high polyreactivity
QVQLVESGGGLVQAGGSLRLSCAASGRTFRYNAMGWYRQATGKVRELVAAISGRGSSTYYADSVKGRFTISRDNAKNTVYLQMNSLKPDDTAVYYCAALPASVRRPGWHDYWGQGTQVTVSS | high polyreactivity
QVQLVESGGGLVQAGGSLRLSCAASGSTFPYYAMGWYRQAPGKEREFVAAISSSGGSTYYADSVKWRFTISRDNAKNTVYLQMNSLKPEDTAVYYCAAQGARRNYYRYGTYTNRRYDYWGQGTQVTVSS | high polyreactivity
QVQLVESGGGLVQAGGSLRLSCAASGRTFAYNAKGWYRQPPGKERELVASITVGGGSTYYADSVKGRFTISRDNAKNTVYLQMNSLKPEDTAVYYCAARVPSWKYDYWGQGTQVTVSS | high polyreactivity
QVQLVESGGGLVQAGGSLRLTCAAYGRIFRYYPMGWYRQAPGKERDLVAAINWRGTSTSYADSVKGRFTISRDIAKNTVYLQMNSLKPEETAVYYCARVAWSESDWQKMDYWGQGTQVTVSS | high polyreactivity
QVQLVESGGGLVQAGGSLRLSCAASGYTLRIYAMGWYRQAPGKERELVAAISRGGGTTRYADSVKGRFTISRDNAKNTVYLQMNSLKPEDTAVYYCNKDVYGYSRTGPRGYDYWGQGTQVTVSS | high polyreactivity
QVQLVESGRGLVQAGGSLRLSCAASGFTLWIYAKGWYRQAPGKESELVAAITWSTGSTYYADSVKGRFTISRDNAKNTVYLLMNSLKPEDTAVYYCPAEFHWWYAGYDYGYWGQGTQVTVSS | low polyreactivity
QVHLVESGGGLVQAGGSLRLSCAASGSIFFGYTMGWYRQAPGKERELVAAITRRGGSTYYADSVKGRFTISRDNAKNTVYLQMNSLKPVDTAVYYCAAEVRRYVIVPYYYWGQGTQVTVSS | high polyreactivity
QVQLVESGGGLVQAGGSLRLSCAASGLIFYTYAMGWYRQAPGKEREFVAAISRRGGSTYYADSVKGRFTISRDNAKNTVYLQMNSLKPEDTAVYYCNARYTYPRPYEEYYYWGQGTQVTVSS | high polyreactivity
QVQLVESGGGLVQAGGSLRLSCAASGSILGNAMGWYRQAPGKERELVAAISRNGDSTYYADSVKGRFTISRDNAKNTVYLQMNSLKPEDTAVYYCNAQWFFYGYIAGDYWGQGTQVTVSS | high polyreactivity

Sequence | polyreactivity (PSR sort gate)
QVQLVESGGGLVQAGGSLRLSCAASGITFRTNTMGWYRQAPGKEREFVAAISSNGGRTYYADSVKGRFTISRDNAKNTVYLQMNSLKPEDTAVYYCNARTKHRYEYDYWGQGTQVTVSS | high polyreactivity
QVQLVESGGGLVQAGGSLRLSCAASGINFFGYAMGWYRQAPGKERELVAGISRSTGRTYYADSVKGRFTISRDNAKNTVYLQMNSLKQEDTSVYYCAARATRSLSRSMDYWGQGTQVTVSS | high polyreactivity
QVQLGESGGGIVQAGGSLRLSCAASGIIFARYAMGWSRQAPGKERELVAAISRRGTSTYYADSVKGRFTISRDNAKNTVYLQMNSLKPEDTALYYCAARQLFYLPGPRVDAWGQGTQVTVSS | high polyreactivity
QVQLVESGGGLVQAGGSLRLSCAASGFTIWRYAMGWYRQAPGKERELVAAISRGGSTNYADSVKGRFTISRDNAKKTVYLQMNSLKPEDTAGYYCAASVQYRRLKKFYYWGQGTQVTVSS | high polyreactivity
QVQLVESGGGLVQAGGSLRLSCAASGSIFTTYAMGWYRQAPGKERELVAAISSTSGSTYYADSVKGRFTISRDNAKNTVYLQMNSLKPEDTAVYYCAARGGYWGQGTQVTVSS | low polyreactivity
QVQLVESGGGLVQAGGSLRLSSAASGITFDIYDMGWYRQAPGKERELVAAISYSGGSTYYADSVKGRFTISRDNAKNTVYLQMNSLTPEDTAVYDCAAAWYYNSDNEFDYWGQGTQVTVSS | low polyreactivity
QVQLVESGGGLFQAGGSLRVSCAASGRIFFPYAMGWYRQAPGKERELVASIRGGGSTSYADSVKGRFTFSRDNAKNTVYLQMNSLKPEDTAVYYCAATPQAYWVLWSTYYTYYYWGQGTQVTVSS | high polyreactivity
QVQLVESGGGLVQAGGSLRLSCAASGLIFKYNAMGWYRQAPGKERELVAAISTSGGSTYYADSVKGRFTISRDNAKNTVYLQMNSLKPEDTAVYYCNAVAGRPFRYYYWGQGTQVTVSS | high polyreactivity
QVQLVESGGGLVQAGGSLRLSCAASGIIFKGYDMGWYRQAPGKERELVAAISSGSTNYADSVKGRFTISRDNAKNTVYLQMNSLKPEDTAVYYCAVRTYRYQSWGNYYLEYDYWGQGTQVTVSS | low polyreactivity
QVQLVESGGGLVQAGGSLRLSCAASGSTFIPYTMGWYRQAPGKERELVAAISGRGGRTYYADSVKGRFTISRDNAKNTVYLQMNSLKPEDTAVYYCNRVLRYGPSAQYDYWGQGTQVTVSS | high polyreactivity
QVQLVESRGGLVQAGGSLRLSCAASGSNFYAYAMGWYRQAPGKERELVAAISWSTSSTYADSVKGRFTISRDNAKNTVYLQMNSLKPEDTAVYYCAASPYKGTGAEFDYWGQGTQVTVSS | low polyreactivity
QVKLVESGGGLVQEGGSLRLSCAASGRIFGNYAMGWYRQAPGKERELVAAIDLSGDSTYYADSVKGRFTISRDNAKNTVYLQMNSLKPEDTAVYYCAATDWFSEYFWGQGTQVTVSS | low polyreactivity
QVQLVESGGALVQAGGSLRLSCAASGIILYYYAMGWYRQAPGKERELVAAISSGGNTYYADSVKGRFTISRDNAKNTVYLQMNSLKPEDTAVYYCAAVTVIGGEYDYWGQGTQVTVSS | low polyreactivity
QVQLVESGGGLVQAGGSLRLTCAASGSTFYHNAMGWYRQAPGKERELVAAITTSGGSTYYADSVKGRFTISRDNAKNTVYLQMNSLKPVDTAVYYCNVYRPYLAPYDYWGQGTQVTVSS | low polyreactivity
QVQLVESGGGLVQAGGSLRLSCAASGFTGVNAMGWYRQAPGKERELVARISNSGGSTYYADSVKGRFTISRDNAKNTVYLQMNSLKPEDTAVYYCNADSYYWGQGTQVTVSS | high polyreactivity
QVQLVDSGGGLVQAGGSLRLSCAASGFIFAPYAMGWYRQAPGKERELVAAISSSGGSTYYADSVKGRFTISRDNAKNTVYLQMNSLKPEDTAVYYCAVDYLTLTYEYYYWGQGTQVTVSS | low polyreactivity
QVQLVESGGGLVQAGGSLRLSCAASGYIFLRNAMGWYRQAPGKERELVAAIRRTGGSTYADSVKGRFTISRDNAKNTVYLQMNSLKPEDTAVYYCNAGYLLYYDYHLFYWVQGTQVTVSS | low polyreactivity
QVQLVESGGGLVQAGGSLRLSCAASGRTQAFHAMGWYRQAPGKERELVAVIRNGTSTNYADSVKGRFTISRDNAKNTVYLQMNSLKPEDTAVYYCNVPYYLPSYLSGYDYWGQGTQVTVSS | low polyreactivity
QVQLVESGGGLVQEGGSLRLSWAASGSTFARYAMGWYRQAPGKERELVAAISRRGGSTYYADSVKGRFTISRDKAKNTVYVQMHRLKPEDTGVSYCAARYGIISSFEYDYWGQGTQVTVSS | high polyreactivity
QDKLVESGGGLVQAGASLRLTCAASGLIIYRNAMGWYIQAPGKERELVATISRRGGRTYYADSVKGRFTISRDNAKNNVYLQMNSLKPEDTAVYYCIADDYRSRGGYDSWGQGTQVTVSS | high polyreactivity
QVQLVESGGGLVQAGGSLRLSCAASGSTFAIYAMGLYRQAPGKERELVAAITRSGGNTYYAESVKGRFTISRDNAKNTVYLQMNSLKPEDTAVYYCNAETYYWSAYAQYEYWGQGTQVTVSS | high polyreactivity
